# Source: patent US20100221257A1
# Assays:
# [1] = molecular target: human IL-1R1, endogenous on human cells (HeLa cells; whole blood) (human) (UniProt P14778); test: cell-based or functional assay
# [2] = molecular target: Human sIL-1R1 (R&D Systems), un-tagged (human) (UniProt P14778); test: KinExA, IgG equilibrated in solution with un-tagged sIL-1R1; free IgG captured on IL-1R1 beads
# Sequence of Human sIL-1R1 (R&D Systems), un-tagged (human) (P14778 18-332 limits assumed): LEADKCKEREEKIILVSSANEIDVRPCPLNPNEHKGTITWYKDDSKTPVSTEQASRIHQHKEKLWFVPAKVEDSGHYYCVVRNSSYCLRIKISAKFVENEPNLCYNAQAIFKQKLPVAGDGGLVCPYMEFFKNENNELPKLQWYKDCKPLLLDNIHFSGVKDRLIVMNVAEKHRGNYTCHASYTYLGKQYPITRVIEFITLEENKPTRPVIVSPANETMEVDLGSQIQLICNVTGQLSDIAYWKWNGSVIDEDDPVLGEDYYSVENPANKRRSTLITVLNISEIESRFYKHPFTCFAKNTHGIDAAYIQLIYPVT
# Sequence of human IL-1R1, endogenous on human cells (HeLa cells; whole blood) (human) (P14778 18-569): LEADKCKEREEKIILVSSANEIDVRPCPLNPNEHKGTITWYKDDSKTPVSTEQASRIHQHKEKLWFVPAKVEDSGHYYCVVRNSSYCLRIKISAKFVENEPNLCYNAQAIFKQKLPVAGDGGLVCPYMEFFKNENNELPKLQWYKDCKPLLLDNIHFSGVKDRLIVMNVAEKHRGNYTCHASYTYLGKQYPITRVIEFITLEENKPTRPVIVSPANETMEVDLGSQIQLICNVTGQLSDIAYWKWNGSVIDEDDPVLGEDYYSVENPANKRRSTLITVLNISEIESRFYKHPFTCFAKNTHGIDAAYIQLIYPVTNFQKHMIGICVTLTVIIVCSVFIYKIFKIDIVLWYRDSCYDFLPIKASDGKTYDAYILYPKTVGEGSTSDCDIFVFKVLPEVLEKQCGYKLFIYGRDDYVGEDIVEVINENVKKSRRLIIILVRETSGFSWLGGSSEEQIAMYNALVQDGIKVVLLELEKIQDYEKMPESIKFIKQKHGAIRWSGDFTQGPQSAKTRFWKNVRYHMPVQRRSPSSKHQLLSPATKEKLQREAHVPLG
substance,measurement,setting,value
AMG108 IgG2 (antibody),"IC50, inhibition of IL-1 alpha induced IL-8 release in HeLa cells (N = 3)",[1],11.7 pM
same,"IC50, inhibition of IL-1 beta induced IL-8 release in HeLa cells (run with the GL IgG2 set, N = 5-6)",[1],5.9 pM
same,"IC50, inhibition of IL-1 beta induced IL-8 release in HeLa cells (run with the IgG1 set, N = 6-7)",[1],5.3 pM
same,"IC50, inhibition of human IL-1β induced IL-8 release from HeLa cells",[1],9 pM
same,Kd,[2],4.12 pM
